Assay results published in ChEMBL document CHEMBL1212772.

How the values were obtained:
[1] = substrate: CC(C)(O/N=C(\C(=O)N[C@@H]1C(=O)N2C(C(=O)[O-])=C(C[n+]3ccccc3)CS[C@H]12)c1csc(N)n1)C(=O)O; assay: (§1) Activity of Escherichia coli CMY-2
[2] = substrate: O=C(Cc1cccs1)N[C@@H]1C(=O)N2C(C(=O)O)=C(/C=C/c3ccc([N+](=O)[O-])cc3[N+](=O)[O-])CS[C@H]12; assay: as §1
[3] = substrate: C[C@@H](O)[C@H]1C(=O)N2C(C(=O)O)=C(S[C@@H]3CN[C@H](C(=O)N(C)C)C3)[C@H](C)[C@H]12; assay: as §1
[4] = substrate: CC1(C)S[C@@H]2[C@H](NC(=O)Cc3ccccc3)C(=O)N2[C@H]1C(=O)O; assay: as §1
[5] = substrate: O=C(Cc1cccs1)N[C@@H]1C(=O)N2C(C(=O)[O-])=C(C[n+]3ccccc3)CS[C@H]12; assay: as §1
[6] = substrate: C[C@@H](O)[C@H]1C(=O)N2C(C(=O)O)=C(SCCNC=N)C[C@H]12; assay: as §1
[7] = substrate: C[C@@H](O)[C@H]1C(=O)N2C(C(=O)O)=C(S[C@@H]3CN[C@H](CNS(N)(=O)=O)C3)[C@H](C)[C@H]12; assay: as §1
[8] = substrate: CC(C)(O/N=C(\C(=O)N[C@@H]1C(=O)N2C(C(=O)[O-])=C(C[n+]3ccccc3)CS[C@H]12)c1csc(N)n1)C(=O)O; assay: (§2) Kcat/Km ratio of Escherichia coli CMY-2
[9] = substrate: O=C(Cc1cccs1)N[C@@H]1C(=O)N2C(C(=O)O)=C(/C=C/c3ccc([N+](=O)[O-])cc3[N+](=O)[O-])CS[C@H]12; assay: as §2
[10] = substrate: C[C@@H](O)[C@H]1C(=O)N2C(C(=O)O)=C(S[C@@H]3CN[C@H](C(=O)N(C)C)C3)[C@H](C)[C@H]12; assay: as §2
[11] = substrate: CC1(C)S[C@@H]2[C@H](NC(=O)Cc3ccccc3)C(=O)N2[C@H]1C(=O)O; assay: as §2
[12] = substrate: O=C(Cc1cccs1)N[C@@H]1C(=O)N2C(C(=O)[O-])=C(C[n+]3ccccc3)CS[C@H]12; assay: as §2
[13] = substrate: C[C@@H](O)[C@H]1C(=O)N2C(C(=O)O)=C(SCCNC=N)C[C@H]12; assay: as §2
[14] = substrate: C[C@@H](O)[C@H]1C(=O)N2C(C(=O)O)=C(S[C@@H]3CN[C@H](CNS(N)(=O)=O)C3)[C@H](C)[C@H]12; assay: as §2
[15] = compound: C[C@@H](O)[C@H]1C(=O)N2C(C(=O)O)=C(S[C@@H]3CN[C@H](C(=O)N(C)C)C3)[C@H](C)[C@H]12; assay: (§3) Inhibition of Escherichia coli CMY-2 assessed as inhibition of nitrocefin hydrolysis
[16] = compound: C[C@@H](O)[C@H]1C(=O)N2C(C(=O)O)=C(SCCNC=N)C[C@H]12; assay: as §3
[17] = compound: C[C@@H](O)[C@H]1C(=O)N2C(C(=O)O)=C(S[C@@H]3CN[C@H](C(=O)N(C)C)C3)[C@H](C)[C@H]12; assay: (§4) Inhibition of Pseudomonas aeruginosa AmpC assessed as inhibition of nitrocefin hydrolysis
[18] = compound: C[C@@H](O)[C@H]1C(=O)N2C(C(=O)O)=C(SCCNC=N)C[C@H]12; assay: as §4
[19] = compound: C[C@@H](O)[C@H]1C(=O)N2C(C(=O)O)=C(S[C@@H]3CN[C@H](CNS(N)(=O)=O)C3)[C@H](C)[C@H]12; assay: as §4
[20] = substrate: O=C(Cc1cccs1)N[C@@H]1C(=O)N2C(C(=O)O)=C(/C=C/c3ccc([N+](=O)[O-])cc3[N+](=O)[O-])CS[C@H]12; assay: (§5) Activity of Pseudomonas aeruginosa AmpC
[21] = substrate: C[C@@H](O)[C@H]1C(=O)N2C(C(=O)O)=C(S[C@@H]3CN[C@H](C(=O)N(C)C)C3)[C@H](C)[C@H]12; assay: as §5
[22] = substrate: CC1(C)S[C@@H]2[C@H](NC(=O)Cc3ccccc3)C(=O)N2[C@H]1C(=O)O; assay: as §5
[23] = substrate: O=C(Cc1cccs1)N[C@@H]1C(=O)N2C(C(=O)[O-])=C(C[n+]3ccccc3)CS[C@H]12; assay: as §5
[24] = substrate: C[C@@H](O)[C@H]1C(=O)N2C(C(=O)O)=C(SCCNC=N)C[C@H]12; assay: as §5
[25] = substrate: C[C@@H](O)[C@H]1C(=O)N2C(C(=O)O)=C(S[C@@H]3CN[C@H](CNS(N)(=O)=O)C3)[C@H](C)[C@H]12; assay: as §5
[26] = substrate: O=C(Cc1cccs1)N[C@@H]1C(=O)N2C(C(=O)O)=C(/C=C/c3ccc([N+](=O)[O-])cc3[N+](=O)[O-])CS[C@H]12; assay: (§6) Kcat/Km ratio of Pseudomonas aeruginosa AmpC
[27] = substrate: C[C@@H](O)[C@H]1C(=O)N2C(C(=O)O)=C(S[C@@H]3CN[C@H](C(=O)N(C)C)C3)[C@H](C)[C@H]12; assay: as §6
[28] = substrate: CC1(C)S[C@@H]2[C@H](NC(=O)Cc3ccccc3)C(=O)N2[C@H]1C(=O)O; assay: as §6
[29] = substrate: O=C(Cc1cccs1)N[C@@H]1C(=O)N2C(C(=O)[O-])=C(C[n+]3ccccc3)CS[C@H]12; assay: as §6
[30] = substrate: C[C@@H](O)[C@H]1C(=O)N2C(C(=O)O)=C(SCCNC=N)C[C@H]12; assay: as §6
[31] = substrate: C[C@@H](O)[C@H]1C(=O)N2C(C(=O)O)=C(S[C@@H]3CN[C@H](CNS(N)(=O)=O)C3)[C@H](C)[C@H]12; assay: as §6

B1: Beta-lactamase (Escherichia coli), Q53TY8 (protein)
chain: MMKKSLCCALLLTASFSTFAAAKTEQQIADIVNRTITPLMQEQAIPGMAVAVIYQGKPYYFTWGKADIANNHPVTQQTLFELGSVSKTFNGVLGGDAIARGEIKLSDPVTKYWPELTGKQWQGIRLLHLATYTAGGLPLQIPDDVRDKAALLHFYQNWQPQWTPGAKRLYANSSIGLFGALAVKPSGMSYEEAMTRRVLQPLKLAHTWITVPQNEQKDYAWGYREGKPVHVSPGQLDAEAYGVKSSVIDMARWVQANMDASHVQEKTLQQGIALAQSRYWRIGDMYQGLGWEMLNWPLKADSIINGSDSKVALAALPAVEVNPPAPAVKASWVHKTGSTGGFGSYVAFVPEKNLGIVMLANKSYPNPVRVEAAWRILEKLQ
Km [1]: 4.5 µM
kcat [1]: 0.0035 s⁻¹
Km [2]: 40 µM
kcat [2]: 1700 s⁻¹
kcat [3]: 8.1e-05 s⁻¹
Km [4]: 2.2 µM
kcat [4]: 22 s⁻¹
Km [5]: 290 µM
kcat [5]: 710 s⁻¹
kcat [6]: < 0.031 s⁻¹
kcat [7]: 7.2e-05 s⁻¹
kcat/Km [8]: 780 M⁻¹ s⁻¹
kcat/Km [9]: 4.3e+07 M⁻¹ s⁻¹
kcat/Km [10]: 1400 M⁻¹ s⁻¹
kcat/Km [11]: 1e+07 M⁻¹ s⁻¹
kcat/Km [12]: 2.4e+06 M⁻¹ s⁻¹
kcat/Km [13]: 100000 M⁻¹ s⁻¹
kcat/Km [14]: 16000 M⁻¹ s⁻¹
Km [15]: 0.06 µM
Km [16]: 0.31 µM

B2: Beta-lactamase (Pseudomonas aeruginosa (strain ATCC 15692 / PAO1 / 1C / PRS 101 / LMG12228)), P24735 (protein)
chain: MRDTRFPCLCGIAASTLLFATTPAIAGEAPADRLKALVDAAVQPVMKANDIPGLAVAISLKGEPHYFSYGLASKEDGRRVTPETLFEIGSVSKTFTATLAGYALTQDKMRLDDRASQHWPALQGSRFDGISLLDLATYTAGGLPLQFPDSVQKDQAQIRDYYRQWQPTYAPGSQRLYSNPSIGLFGYLAARSLGQPFERLMEQQVFPALGLEQTHLDVPEAALAQYAQGYGKDDRPLRVGPGPLDAEGYGVKTSAADLLRFVDANLHPERLDRPWAQALDATHRGYYKVGDMTQGLGWEAYDWPISLKRLQAGNSTPMALQPHRIARLPAPQALEGQRLLNKTGSTNGFGAYVAFVPGRDLGLVILANRNYPNAERVKIAYAILSGLEQQGKVPLKR
Km [17]: 1.4 µM
Km [18]: 1.6 µM
Km [19]: 1.8 µM
Km [20]: 31 µM
kcat [20]: 150 s⁻¹
kcat [21]: < 0.006 s⁻¹
Km [22]: 14 µM
Km [23]: 350 µM
kcat [24]: < 0.03 s⁻¹
kcat [25]: < 0.006 s⁻¹
kcat/Km [26]: 4.8e+06 M⁻¹ s⁻¹
kcat/Km [27]: < 4300 M⁻¹ s⁻¹
kcat/Km [28]: 3.1e+06 M⁻¹ s⁻¹
kcat/Km [29]: 270000 M⁻¹ s⁻¹
kcat/Km [30]: < 4.8e+06 M⁻¹ s⁻¹
kcat/Km [31]: < 3300 M⁻¹ s⁻¹
